The results in this text go back to patent US20260216366A1, “CONJUGATE AND USES THEREOF” (Full-Life Technologies UK Limited, priority 2022, published 2026).

Data set [1] is described as follows: Pharmacokinetic study of FAP-linker conjugates (serum ELISA, NCA). Format: in vivo, BALB/c mice. Particulars: FIG. 3; FAP conjugate of the named linker compared to the control group. The protocol:
he in vivo pharmacokinetic profile of the FAP-linker conjugates was analyzed. Briefly, BALB/c mice were administered with the conjugates by intravenous injection at a dose of about 1 mg/kg. Then, whole blood of the animal was collected at different time periods over 48 hours.
The whole blood was collected into a tube without anticoagulation and maintained at room temperature for more than 30 minutes, followed by centrifugated at approximately 5000 rpm at 4° C. for 5 minutes to obtain serum. Concentration of the conjugates in serum was then measured by ELISA using HRP-labeled goat anti-alpaca IgG VHH domain secondary antibody. The data was further analyzed using PK Solver software, and the […] (NCA) was used to evaluate the pharmacokinetic parameters, as shown in Table 8 and FIG. 3.

Data set [2] can be described thus: Pharmacokinetic study of CLDN18.2-linker conjugates (serum ELISA, NCA). In kind it is in vivo, BALB/c mice. The conditions noted are these: FIG. 2; CLDN18.2 conjugate of the named linker compared to the control group. The protocol: The in vivo pharmacokinetic profile of the CLDN18.2-linker conjugates was analyzed. Briefly, BALB/c mice were administered with the conjugates by intravenous injection at a dose of about 1 mg/kg. Then, whole blood of the animal was collected at different time points over 48 hours.
The whole blood was collected into a tube without anticoagulation and maintained at room temperature for more than 30 minutes, followed by centrifuge at approximately 5000 rpm at 4° C. for 5 minutes to obtain serum. Concentration of the conjugates in serum was then measured by ELISA using HRP-labeled goat anti-alpaca IgG VHH domain secondary antibody. The data was further analyzed using PK Solver software, and the […] (NCA) was used to evaluate the pharmacokinetic parameters, as shown in Table 7 and FIG. 2.

Data set [3] relates to FAP expressing HEK293-hFAP cells. Briefly: In vivo SPECT imaging of 177Lu-labeled FAP conjugates. More on the design: species or system female athymic nude mice. The conditions noted are these: FIG. 5, 30 MBq/mouse i.v., at different time points. The protocol:
In vivo biodistribution of FAP conjugates was analyzed by SPECT imaging via ^177Lu labeling. Briefly, the FAP conjugates were labeled by ^177Lu with a molar activity of 1 MBq/μg at 37° C. for 60 min and purified by size-exclusion chromatography, followed by analysis of radioactive purity through radio-TLC and radio-HPLC on the same day of labelling. The release criteria for radio-labelled sample was ≥90% radiochemical purity.
For the imaging study, female athymic nude mice (approximately 6-8 weeks old) were each inoculated with 5×10^6 FAP expressing HEK293-hFAP cells via subcutaneous injection into the shoulder. When the tumor volume reached to about 150 to 250 mm^3, the animal was injected with the labeled conjugate at a dose of 30 MBq/mouse by a single bolus intravenous injection in tail vein. Animals were then subject to whole-body static SPECT followed by CT at different time points under isoflurane anaesthesia.

In the next data set the test system is CLDN18.2 HEK293T cells. Briefly: In vivo SPECT imaging of 111In-labeled CLDN18.2 conjugates. More on the design: species or system female athymic nude mice. Particulars: FIG. 4, 10 MBq/mouse i.v., over 48 hours, compared to the control group. As for the experimental part: In vivo biodistribution of the CLDN18.2 conjugates was analyzed by SPECT imaging via ^111In labeling. Briefly, the CLDN18.2 conjugates were labeled by ^111In at 30° C. for 60 min and purification by NAP-5 column. followed by analysis of radioactive purity through radio-TLC and radio-HPLC on the same day of labelling. The release criteria for radio-labelled sample was ≥90% radiochemical purity.
For the imaging study, female athymic nude mice (approximately 6-8 weeks old) were each inoculated with 5×10^6 CLDN18.2 HEK293T cells via subcutaneous injection into the shoulder. When the tumor volume reached to about 200 to 300 mm^3, the animal was injected with the labeled conjugate at a dose of 10 MBq/mouse by a single bolus intravenous injection in tail vein. Animals were then subject to whole-body static SPECT followed by CT at different time points under isoflurane anaesthesia. […] In addition, the tumor/kidney ratio was increased around 5-10 folds compared to the control group.

The next data set deals with T1, human Claudin 18.2-VLP (human, UniProt P56856-2 1-261).
T1 construct: also called CLDN18.2
T1 sequence (looked up): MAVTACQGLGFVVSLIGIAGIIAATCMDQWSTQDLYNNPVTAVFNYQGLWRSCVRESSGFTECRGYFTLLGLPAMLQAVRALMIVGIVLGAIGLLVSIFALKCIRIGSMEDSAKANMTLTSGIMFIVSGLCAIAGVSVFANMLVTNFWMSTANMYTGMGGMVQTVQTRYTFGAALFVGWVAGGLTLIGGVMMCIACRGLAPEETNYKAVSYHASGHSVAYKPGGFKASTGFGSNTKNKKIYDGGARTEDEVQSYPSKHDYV
In words: ELISA, plate coated with human Claudin 18.2-VLP, HRP anti-sdAb detection. As for the experimental part: (§1) Binding affinities of the prepared conjugates with tumor antigen was evaluated by ELISA. […] On the next day, the plate was washed by 0.05% PBST and blocked by 10% StartingBlock buffer (Thermo, #37538) at room temperature for 1 hr. Then, 100 μL of serial diluted conjugate samples in 1% StartingBlock buffer was added to the plate. The plate was further incubated at room temperature for 2 hrs under shaking at 100 rpm and washed by 0.05% PBST. Then 100 μL 0.4 μg/mL HRP-conjugated anti-sdAb secondary antibody (Jackson, #128-035-232) was added and subject to 1 hr incubation at room temperature under shaking at 100 rpm. The plate was then washed by 0.05% PBST and developed using TMB solution (KPL, #5120-00820).

The next data set addresses T2, human FAP-hFc (human, UniProt Q12884 26-760).
T2 construct: Coated on the ELISA plate as human FAP-hFc; also called FAP-alpha; not shown: human Fc (hFc)
T2 sequence (looked up): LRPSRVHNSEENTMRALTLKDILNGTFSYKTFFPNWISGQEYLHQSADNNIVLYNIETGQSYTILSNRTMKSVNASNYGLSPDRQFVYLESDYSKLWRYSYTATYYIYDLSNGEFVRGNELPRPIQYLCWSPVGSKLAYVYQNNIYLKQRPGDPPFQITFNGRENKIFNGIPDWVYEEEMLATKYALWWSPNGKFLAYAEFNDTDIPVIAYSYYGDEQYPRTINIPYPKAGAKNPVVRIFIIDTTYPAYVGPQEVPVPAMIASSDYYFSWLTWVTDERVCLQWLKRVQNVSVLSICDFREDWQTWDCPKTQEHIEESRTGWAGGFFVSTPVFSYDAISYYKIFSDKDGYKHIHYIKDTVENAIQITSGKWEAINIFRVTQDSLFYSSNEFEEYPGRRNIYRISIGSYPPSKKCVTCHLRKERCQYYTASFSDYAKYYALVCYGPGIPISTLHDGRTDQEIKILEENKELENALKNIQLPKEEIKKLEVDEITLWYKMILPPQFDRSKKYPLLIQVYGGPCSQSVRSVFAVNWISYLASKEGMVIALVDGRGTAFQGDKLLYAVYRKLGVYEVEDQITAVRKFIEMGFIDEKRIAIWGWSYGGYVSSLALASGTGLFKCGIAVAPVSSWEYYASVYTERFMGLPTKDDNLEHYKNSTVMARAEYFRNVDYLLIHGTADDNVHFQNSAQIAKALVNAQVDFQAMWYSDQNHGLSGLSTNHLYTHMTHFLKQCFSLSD
In words: ELISA, plate coated with human FAP-hFc, HRP anti-sdAb detection. As for the experimental part: as §1

For the molecule `O=C(O)CCC(NC(=O)C(CCCCNC(=O)CCCc1ccc(I)cc1)NC(=O)CNC(=O)CCC(C(=O)O)N1CCN(CC(=O)O)CCN(CC(=O)O)CCN(CC(=O)O)CC1)C(=O)NCc1ccc(N=C=S)cc1` (stereo not drawn) [L007], the “blood circulation of the FAP conjugates” value in data set [1] was “significantly prolonged blood circulation”. For the same molecule, the “blood circulation of the CLDN18.2 conjugates” value in data set [2] was “significantly prolonged blood circulation”. Besides, the “retention of the FAP conjugates in tumor” value in data set [3] was “increasing retention”. Moreover, the “retention of the CLDN18.2 conjugates in tumor” value in the data set with CLDN18.2 HEK293T cells was “significantly increased retention”. For `O=C(O)CN1CCN(CC(=O)O)CCN(C(CCC(=O)NCC(=O)NC(CCCCNC(=O)CCCc2ccc(I)cc2)C(=O)NCc2ccc(N=C=S)cc2)C(=O)O)CCN(CC(=O)O)CC1` (stereo not drawn) [L009], the “blood circulation of the CLDN18.2 conjugates” value in data set [2] is given as “significantly prolonged blood circulation”. In the data set on CLDN18.2 HEK293T cells, the “retention of the CLDN18.2 conjugates in tumor” value was “significantly increased retention”.

B1: CLDN18.2-L007 (VHH)
VHH: EVQLVESGGGLVQPGGSLRLSCAASGSFFRIVAMGWYRQAPGSQRELVATITRGGSTYYADSVKGRFTISRDNAKNTLYLQMNSLRAEDTAVYYCNVRVEVPFMQPNDYWGQGTLVTVSS
modifications: functional linker L007 conjugated to the sdAb, residue not stated; DOL 1.69
notes: also called CLDN18.2 sdAb-linker L007 conjugate; linker 007 conjugate
Consider B1, for which, in the data set with human Claudin 18.2-VLP, the EC50 came to 7.41 nM.

B2: CLDN18.2-L009 (VHH)
VHH: EVQLVESGGGLVQPGGSLRLSCAASGSFFRIVAMGWYRQAPGSQRELVATITRGGSTYYADSVKGRFTISRDNAKNTLYLQMNSLRAEDTAVYYCNVRVEVPFMQPNDYWGQGTLVTVSS
modifications: functional linker L009 conjugated to the sdAb, residue not stated; DOL 1.77
notes: also called CLDN18.2 sdAb-linker L009 conjugate; linker 009 conjugate
Turning to B2, the half-maximal effective concentration (EC50) with human Claudin 18.2-VLP was found to be 3.11 nM.

B3: CLDN18.2-L010 (VHH)
VHH: EVQLVESGGGLVQPGGSLRLSCAASGSFFRIVAMGWYRQAPGSQRELVATITRGGSTYYADSVKGRFTISRDNAKNTLYLQMNSLRAEDTAVYYCNVRVEVPFMQPNDYWGQGTLVTVSS
modifications: functional linker L010 conjugated to the sdAb, residue not stated; DOL 1.54
notes: also called CLDN18.2 sdAb-linker L010 conjugate; linker 010 conjugate
In turn, B3 registered a half-maximal effective concentration (EC50) in the data set with human Claudin 18.2-VLP of 2.31 nM.

B4: CLDN18.2-L012 (VHH)
VHH: EVQLVESGGGLVQPGGSLRLSCAASGSFFRIVAMGWYRQAPGSQRELVATITRGGSTYYADSVKGRFTISRDNAKNTLYLQMNSLRAEDTAVYYCNVRVEVPFMQPNDYWGQGTLVTVSS
modifications: functional linker L012 conjugated to the sdAb, residue not stated; DOL 1.65
notes: also called CLDN18.2 sdAb-linker L012 conjugate
In the data set with human Claudin 18.2-VLP, B4 returned an EC50 of 1.93 nM. The EC50 values of the last two molecules are within 1.5-fold of each other.

B5: FAP-L007 (VHH)
VHH: QVQLLESGGGLVQPGGSLRLSCAASGFGFGNSLMSWVRRAPGKGLEWVSTIYPRGSFTDYADSVKGRFTISRDNSRNTLYLQMNSLRAEDTAVYYCATGWGRSSDYDPPGQGTLVTVSS
modifications: functional linker L007 conjugated to the sdAb, residue not stated; DOL 0.68
notes: also called FAP sdAb-linker L007 conjugate
In turn, B5 came in with an EC50 with human FAP-hFc of 0.0603 nM.

B6: FAP-DOTAGA (VHH)
VHH: QVQLLESGGGLVQPGGSLRLSCAASGFGFGNSLMSWVRRAPGKGLEWVSTIYPRGSFTDYADSVKGRFTISRDNSRNTLYLQMNSLRAEDTAVYYCATGWGRSSDYDPPGQGTLVTVSS
modifications: DOTAGA chelator conjugated to the sdAb, residue not stated; DOL 0.42
notes: also called FAP sdAb conjugated with DOTAGA (control)
The molecule B6 returned an EC50 in the data set with human FAP-hFc of 0.0553 nM.
